Reference: patent US20120259096A1
Numbering of substitutions follows the chain as printed.

Assays:
[1] = target: human Nav1.7 channel (type IX voltage-gated sodium channel alpha subunit) (human) (UniProt Q15858); assay: cell-based or functional assay
[2] = target: recombinant rat Nav1.7 channels expressed in HEK cells (rat) (UniProt O08562); assay: cell-based or functional assay
Chain of recombinant rat Nav1.7 channels expressed in HEK cells (rat) (O08562 whole entry): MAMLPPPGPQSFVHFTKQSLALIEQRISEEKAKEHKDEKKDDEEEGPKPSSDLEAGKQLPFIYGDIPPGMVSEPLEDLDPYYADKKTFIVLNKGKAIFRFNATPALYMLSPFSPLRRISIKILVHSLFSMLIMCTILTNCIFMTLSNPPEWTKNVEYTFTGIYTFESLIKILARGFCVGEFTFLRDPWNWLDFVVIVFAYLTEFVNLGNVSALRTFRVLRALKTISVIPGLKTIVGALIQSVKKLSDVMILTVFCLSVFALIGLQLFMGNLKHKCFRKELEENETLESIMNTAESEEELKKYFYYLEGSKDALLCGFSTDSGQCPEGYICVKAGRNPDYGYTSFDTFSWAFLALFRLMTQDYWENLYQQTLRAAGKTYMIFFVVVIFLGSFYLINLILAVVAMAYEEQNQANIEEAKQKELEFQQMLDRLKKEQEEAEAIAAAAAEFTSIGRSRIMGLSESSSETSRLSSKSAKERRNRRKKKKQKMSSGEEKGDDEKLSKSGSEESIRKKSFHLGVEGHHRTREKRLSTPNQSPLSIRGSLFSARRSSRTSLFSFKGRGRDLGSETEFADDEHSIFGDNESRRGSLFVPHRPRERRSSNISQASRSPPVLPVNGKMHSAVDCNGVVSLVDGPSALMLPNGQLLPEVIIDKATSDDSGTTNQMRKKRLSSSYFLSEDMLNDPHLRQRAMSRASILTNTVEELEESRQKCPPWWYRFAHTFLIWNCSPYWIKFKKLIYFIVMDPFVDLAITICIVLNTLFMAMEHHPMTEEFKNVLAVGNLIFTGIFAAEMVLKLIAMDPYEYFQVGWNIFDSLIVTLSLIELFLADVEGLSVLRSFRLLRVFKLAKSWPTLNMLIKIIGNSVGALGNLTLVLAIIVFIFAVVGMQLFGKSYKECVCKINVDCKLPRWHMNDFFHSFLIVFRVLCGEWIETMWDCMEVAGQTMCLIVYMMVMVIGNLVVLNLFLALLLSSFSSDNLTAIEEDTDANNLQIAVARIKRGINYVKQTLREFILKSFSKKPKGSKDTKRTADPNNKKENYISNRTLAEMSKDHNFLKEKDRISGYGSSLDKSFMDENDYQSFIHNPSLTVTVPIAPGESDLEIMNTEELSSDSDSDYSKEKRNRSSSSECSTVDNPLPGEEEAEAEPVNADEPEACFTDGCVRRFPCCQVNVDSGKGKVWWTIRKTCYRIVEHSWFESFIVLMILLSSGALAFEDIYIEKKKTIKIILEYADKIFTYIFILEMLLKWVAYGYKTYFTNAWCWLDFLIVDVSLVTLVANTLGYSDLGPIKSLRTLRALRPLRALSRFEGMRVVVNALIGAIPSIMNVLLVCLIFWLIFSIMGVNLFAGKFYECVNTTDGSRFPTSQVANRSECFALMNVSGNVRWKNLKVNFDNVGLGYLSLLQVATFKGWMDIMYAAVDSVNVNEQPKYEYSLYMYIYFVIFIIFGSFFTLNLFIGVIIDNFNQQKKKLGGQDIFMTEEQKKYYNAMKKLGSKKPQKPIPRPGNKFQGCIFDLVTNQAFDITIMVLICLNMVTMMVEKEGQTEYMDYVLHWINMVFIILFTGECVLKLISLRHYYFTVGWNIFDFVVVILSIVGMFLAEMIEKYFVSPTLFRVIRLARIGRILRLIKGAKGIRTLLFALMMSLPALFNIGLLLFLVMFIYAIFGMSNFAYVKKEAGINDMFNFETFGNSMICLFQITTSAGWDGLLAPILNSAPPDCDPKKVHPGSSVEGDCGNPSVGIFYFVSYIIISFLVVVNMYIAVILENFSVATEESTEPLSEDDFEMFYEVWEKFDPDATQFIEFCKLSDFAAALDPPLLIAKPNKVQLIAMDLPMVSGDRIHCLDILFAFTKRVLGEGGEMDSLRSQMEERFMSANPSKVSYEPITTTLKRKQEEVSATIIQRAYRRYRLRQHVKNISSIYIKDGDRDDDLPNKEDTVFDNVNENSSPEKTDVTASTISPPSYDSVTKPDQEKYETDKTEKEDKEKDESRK

B1: CA167_00983 (antibody, from another filing, rabbit IgG1, V domains shown)
VH: QSVEESGGRLVTPGTPLTLTCTVSGFSLSNYAMSWVRQAPGKGLEWIGIIGKSGSTAYASWAKGRFTISRTSTTVDLEITSPTTEDTATYFCVRFVLLWGPGTLVTVS
VL: AQVLTQTASPVSAAVGGTVTINCQSSQSVYKNNDLAWYQQKPGQPPKLLIYYASTLASGVSSRFKGSGSGTEFTLTISDAQCDDAATYYCLGSYDCSSADCNAFGGGTKVVVK
Nav1.7 inhibition (%), automated patch clamp on HEK cells, antibody at 25 µg/ml [1]: 41%

B2: CA167_01080 (antibody, from another filing, rabbit IgG1, V domains shown)
VH: QSLEESGGRLVTPETPLTLTCTASGIDLSKWPMTWVRQAPGKGLEWIGIIGRSGSTNYASWAKGRFTISKTSTTVDLKMTSPTTEDTATYFCARGGSYYDLWGQGTLVTVS
VL: B1 VL with G17N, N22T, Y30W, A36S, P42L, G66A, E72Q, A80V, A86G, L91V
inhibition of Nav1.7 currents, automated patch clamp on HEK cells, antibody at 25 µg/ml [2]: 26% | Nav1.7 inhibition (%), automated patch clamp on HEK cells, antibody at 25 µg/ml [1]: 46%
